Data published in patent US20220396794A1, “APTAMERS AGAINST TRANSFERRIN RECEPTOR (TfR)” (APTERNA LIMITED, priority 2019, published 2022).

What was measured:
TfR2 = biological target: T1, TfR2 (Homo sapiens, UniProt Q9UP52); test: Cross-reactivity by live cell confocal imaging, TB10 cells (express TfR2, not TfR1); type: cell-based; conditions: Cy3-labelled aptamer, TB10 cells (TfR2 only)
T1 construct: In contrast, TB10 expresses TfR2, not TfR1; endogenous in cells; host or cells: TB10 human glioma cells
T1 sequence (Q9UP52 1-801): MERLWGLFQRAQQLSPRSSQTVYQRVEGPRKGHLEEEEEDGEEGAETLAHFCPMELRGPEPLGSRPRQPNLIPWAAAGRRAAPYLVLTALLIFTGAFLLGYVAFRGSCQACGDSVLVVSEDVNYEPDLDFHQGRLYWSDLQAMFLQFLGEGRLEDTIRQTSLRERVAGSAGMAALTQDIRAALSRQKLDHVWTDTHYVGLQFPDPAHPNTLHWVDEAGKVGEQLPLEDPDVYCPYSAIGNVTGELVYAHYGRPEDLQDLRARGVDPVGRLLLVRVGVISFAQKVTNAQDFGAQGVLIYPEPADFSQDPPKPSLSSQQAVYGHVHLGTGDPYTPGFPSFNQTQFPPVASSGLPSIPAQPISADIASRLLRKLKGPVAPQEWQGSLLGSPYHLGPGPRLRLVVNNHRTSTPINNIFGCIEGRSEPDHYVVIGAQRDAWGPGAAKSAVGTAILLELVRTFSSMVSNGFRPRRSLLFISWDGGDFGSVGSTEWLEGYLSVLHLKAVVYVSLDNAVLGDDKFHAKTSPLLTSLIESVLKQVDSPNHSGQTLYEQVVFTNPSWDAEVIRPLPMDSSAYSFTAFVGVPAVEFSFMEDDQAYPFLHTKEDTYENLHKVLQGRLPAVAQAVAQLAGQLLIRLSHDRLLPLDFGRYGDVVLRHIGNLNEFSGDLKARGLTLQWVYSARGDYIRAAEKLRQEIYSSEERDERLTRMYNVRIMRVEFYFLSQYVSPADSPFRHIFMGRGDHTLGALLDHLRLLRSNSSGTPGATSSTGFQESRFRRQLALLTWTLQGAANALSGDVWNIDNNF
Experimental: (§1) Cell line. HepG2 (Hepatocarcinoma, HB-8065) and PANC-1 (Pancreatic epithelioid carcinoma, CRL-1469), U-87 MG (Glioblastoma, HTB-14) were purchased from the American Type Culture Collection (ATCC, Manassas, Va.). The cells were cultured according to the suppliers' instructions. TB10 human glioma cell line was obtained from Vittorio de Franciscis lab in Italy. The cells were cultured according to the suppliers' instructions.
(§2) To determine the potential cross-reactivity of the parent TR14, S2 (43-nt) and ST1-3 (22-nt) truncates, we tested chemically synthesized parent TR14, TR14-[…] or TR14-ST1-3 aptamer labelled with Cy3 on live cells imaging by confocal microscopy. To test this, we choose two glioblastoma cell lines (U87MG and TB10) that are selectively expressed of TfR1 or TfR2. The U87MG cells only express TfR1, not TfR2. In contrast, TB10 expresses TfR2, not TfR1.

PANC-1 cells [1] = test: Cellular uptake inhibition assay with endocytosis inhibitors; type: cell-based, human; conditions: Cy3-aptamer 200 nM, 1 hour
Experimental: Cellular uptake inhibition assay. 5×10^3 PANC-1 cells/well were seeded in 96-well plates one day before assay. PANC-1 cells were left either pretreated or untreated with chlorpromazine (CPZ, clathrin endocytosis inhibitor, 10 μg/mL), chloroquine (CQ, clathrin endocytosis inhibitor, 20 μg/mL), dynasore (dynamine inhibitor, 80 μM), genistein (GEZ, caveolae/lipid mediated endocytosis inhibitor, 50 μg/mL), or, cytochalasin D (Cyto D, 5 μM) at 37° C. for 30 min. Subsequently, cells were washed with DPBS and incubated with Cy3-labeled aptamers at 200 nM at 37° C. f for 1 hour. Following incubation, cells were washed with HBSS to remove surface-bound aptamers. Cellular uptake was quantified by fluorescence using a plate reader (Molecular device, SpectraMax iD3). The inhibition of uptake was normalized with inhibitor non-treated groups (mock)

PANC-1 cells [2] = test: Live-cell confocal imaging for aptamer internalization, PANC-1; type: cell-based, human; conditions: Cy3-labeled aptamer 200 nM, 2-h incubation, PANC-1, confocal microscopy
Experimental: (§3) Live-cell confocal imaging for aptamer internalization. 1×10^5 HepG2 or PANC-1 cells were seeded in 35-mm glass-bottom dishes (MatTek, Ashland, Mass.) and grown in appropriate media for 24 h. Aptamer RNAs were labeled with Cy3 fluorescent dye using the Cy3 Silencer siRNA labeling kit (Thermo Fisher Scientific, Waltham, Mass.). Cy3-labeled aptamers in binding buffer (30 mM Tris-HCl, pH 7.5; 150 mM NaCl; 5 mM MgCl2; 100 μg/mL yeast tRNA) were added to the cells at 200 nM and incubated at 37° C. for 2 h. Before imaging, cells were washed with DPBS twice. Live-cell confocal imaging was performed with a Zeiss LSM 510 Meta inverted two-photon confocal microscope system using a C-Apo 40×/1.2NA water immersion objective, and AIM 4.2 software (Carl Zeiss, Jena, Germany).

HepG2 cells = test: Live-cell confocal imaging for aptamer internalization, HepG2; type: cell-based, human; conditions: Cy3-labeled aptamer 200 nM, 2-h incubation, HepG2, confocal microscopy
Experimental: as §3

TfR1 = biological target: T2, TfR1 (Homo sapiens, UniProt P02786); test: Cross-reactivity by live cell confocal imaging, U87MG cells (express TfR1, not TfR2); type: cell-based; conditions: Cy3-labelled aptamer, U87MG cells (TfR1 only)
T2 construct: The U87MG cells only express TfR1, not TfR2; endogenous in cells; host or cells: U87MG (U-87 MG, ATCC HTB-14)
Experimental: as §1, §2

PANC-1 cells [3] = test: Co-localization assay with early endosome, late endosome and lysosome markers; type: cell-based, human; conditions: Cy3 labelled aptamer 200 nM, 2 h, live cells expressing GFP-Rab5a, Rab7a or Lamp1
Experimental: Co-localization assay. 1×10^5 PANC-1 cells were seeded in 35 mm glass-bottom dishes (MatTek, Ashland, Mass.) and grown in appropriate media for 24 h. CellLight™ Early endosome-GFP BacMam 2.0 (Thermo Fisher, C10586, CellLight™ Late endosome-GFP BacMam 2.0 (Thermo Fisher, C10588), or CellLight™ Lysosome-GFP BacMam 2.0 lysosome-GFP (Thermo Fisher, C10596) of 20 μL were added and incubated at 37° C. for 16 h. After confirmation of GFP expression, chemically synthesized TR14 labelled with Cy3 at 200 nM was incubated at 37° C. for 2 h. The co-localization was assessed on live cells by confocal microscopy.

PANC-1 cells [4] = test: Competition assays with human transferrin or human transferrin receptor antibodies; type: cell-based; conditions: aptamer 200 nM
Experimental: Competition assays. For competition assays with human transferrin or human transferrin receptor antibodies, 5×10^3 PANC-1 cells/well were seeded in 96-well plates and grown in one day. Cells were pre-incubated with TR14 at 200 nM for 20 min on ice with PBS. After washing with PBS, human transferrin conjugated with Alexa-488 at 25 μg/mL or human transferrin receptor antibody (2 μL/1×10^4 cells) conjugated with FITC were added to cells and the cells were incubated at 37° C. for 40 min. Afterward, the cells were washed with HBSS twice to remove cell surface binders. The intensity of fluorescence was quantified using plate reader (Molecular device, SpectraMax iD5). The intensity was normalized with aptamer non-treated control cells (mock).

PANC-1 cells [5] = test: Flow cytometry-based binding assay; type: cell-based, human; conditions: Cy3-labelled aptamer 500 nM, 20 minutes in ice, PANC-1, compared with initial RNA library pool
Experimental: Flow cytometry-based binding assays. Aptamer binding was assessed by flow cytometry. For the assay, the PANC-1 cells were detached using Accutase, washed with PBS and suspended in binding buffer. Next, chemically synthesized aptamers labeled with Cy3 at 500 nM were added to target cells for 20 minutes in ice. Cells were washed with binding buffer and immediately analyzed by NovoCyte (ACEA Biosciences). For the exclusion of dead cells, 4′6′-diamidino-2-phenylindole (DAPI) (1 μg/ml) was used. The data were analyzed with NovoExpress software.

[6] = biological target: T3, hTfR1 (extracellular domain of hTfR, His6-tagged) (Homo sapiens, UniProt P02786); test: Surface plasmon resonance-based biosensor assay (Biacore T100), aptamer-hTfR binding affinity and kinetics
T3 construct: (NP_003225.2) (Cys 89-Phe 760); His6 (N); purchased Sino Biological Inc 11020-H07H; host or cells: HEK293
Description: Recombinant target protein. hTfR was purchased from Sino Biological Inc (11020-H07H, Beijing, P.R. China). The extracellular domain of hTfR (NP_003225.2) (Cys 89-Phe 760) was expressed with a His6-tag at the N-terminus in human cells (HEK293).
Surface plasmon resonance-based biosensor assay. The Biacore T100 (GE Healthcare, Uppsala, Sweden) was used to monitor label-free interactions of truncated TR14-hTfR1 in real time. The biotinylated aptamer was coupled to a streptavidin-coated Biacore chip (SensorChip SA, BR-1003-98, General Electric Company) by an injection in binding buffer at a concentration of 25 μg/mL (30 mM Tris-HCl, pH 7.5; 150 mM NaCl; 5 mM MgCl2) at 10 uL/min. The RNA was refolded by heating to 65° C., followed by cooling to 37° C., before immobilization. To measure binding kinetics, five concentrations of purified hTfR1 protein were injected at a flow rate of 10 uL/min. After binding, the surface was regenerated by injecting 50 mM NaOH at a flow rate of 15 μL/min for 20 s. Data from the control surface were subtracted. BIAevaluation software (GE Healthcare) was used for analysis. The binding data was fit to a 1:1 binding with a mass transfer model to calculate kinetics parameters as previously described (Hernandez et al, 2009; Soontornworajit et al, 2011)

[7] = Biacore T100, biotinylated aptamer on streptavidin chip, hTfR1 protein injected, 1:1 binding with mass transfer
[8] = label-free biosensor assay in real-time

T3 sequence (P02786 89-760): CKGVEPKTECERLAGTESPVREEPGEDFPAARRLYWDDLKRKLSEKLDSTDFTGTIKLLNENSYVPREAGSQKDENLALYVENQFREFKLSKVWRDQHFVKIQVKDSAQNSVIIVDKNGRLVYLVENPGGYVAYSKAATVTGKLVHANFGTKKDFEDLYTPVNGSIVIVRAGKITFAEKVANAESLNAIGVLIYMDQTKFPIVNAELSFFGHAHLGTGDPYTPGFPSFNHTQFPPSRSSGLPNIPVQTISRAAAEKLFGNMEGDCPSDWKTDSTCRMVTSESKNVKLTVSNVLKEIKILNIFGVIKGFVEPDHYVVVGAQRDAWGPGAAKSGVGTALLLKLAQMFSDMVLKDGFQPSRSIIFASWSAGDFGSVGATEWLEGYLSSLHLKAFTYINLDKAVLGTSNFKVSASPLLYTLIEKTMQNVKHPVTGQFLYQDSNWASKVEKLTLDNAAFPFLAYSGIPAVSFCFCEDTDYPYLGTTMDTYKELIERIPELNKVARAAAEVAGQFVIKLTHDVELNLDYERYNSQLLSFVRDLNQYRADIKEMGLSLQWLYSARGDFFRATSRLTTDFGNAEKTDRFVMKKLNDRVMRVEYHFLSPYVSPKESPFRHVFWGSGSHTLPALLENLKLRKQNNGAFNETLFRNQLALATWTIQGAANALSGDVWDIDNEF
T2 sequence (P02786 whole entry): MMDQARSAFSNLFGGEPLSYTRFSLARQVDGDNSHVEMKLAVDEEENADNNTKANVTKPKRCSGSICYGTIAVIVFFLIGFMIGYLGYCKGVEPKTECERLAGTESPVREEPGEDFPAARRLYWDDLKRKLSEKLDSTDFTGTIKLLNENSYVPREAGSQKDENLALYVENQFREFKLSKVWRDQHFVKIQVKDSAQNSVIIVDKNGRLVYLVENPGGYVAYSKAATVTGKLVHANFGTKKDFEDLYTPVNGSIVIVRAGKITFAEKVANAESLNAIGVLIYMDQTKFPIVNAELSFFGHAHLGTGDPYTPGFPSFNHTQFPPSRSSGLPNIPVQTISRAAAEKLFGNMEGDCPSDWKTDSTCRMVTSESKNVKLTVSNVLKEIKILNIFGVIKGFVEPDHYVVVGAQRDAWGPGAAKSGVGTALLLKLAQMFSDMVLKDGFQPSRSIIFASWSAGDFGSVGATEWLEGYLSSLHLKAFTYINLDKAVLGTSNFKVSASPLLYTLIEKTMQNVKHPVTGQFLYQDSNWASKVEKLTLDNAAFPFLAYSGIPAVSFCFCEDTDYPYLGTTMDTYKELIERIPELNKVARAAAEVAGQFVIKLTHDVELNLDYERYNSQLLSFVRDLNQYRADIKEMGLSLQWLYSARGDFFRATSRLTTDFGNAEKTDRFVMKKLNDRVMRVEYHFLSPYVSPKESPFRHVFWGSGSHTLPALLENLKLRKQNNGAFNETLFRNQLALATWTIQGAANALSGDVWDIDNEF

B1: TR14: 87-nucleotide anti-hTfR 2′F-RNA aptamer identified after nine rounds of protein SELEX; SEQ ID NO:1 (nucleic acid)
chain: GGGAGACAAGAAUAAACGCUCAAUGCGUUCACGUUUAUUCACAUUUUUGAAUUGAGCAUGAGCUUCGACAGGAGGCUCACAACAGGC
modifications: 2'-fluoro RNA aptamer from SELEX, modified positions not given here
TfR2
  binding to TfR2: bound to both TfR1 and TfR2
PANC-1 cells [1]; chlorpromazine 10 μg/mL, chloroquine 20 μg/mL or dynasore 80 μM
  uptake of aptamer after pre-treatment with clathrin mediated endocytosis (CME) inhibitors: inhibited significantly
PANC-1 cells [1]; genistein 50 μg/mL or cytochalasin D 5 μM
  uptake of aptamer after pre-treatment with clathrin independent endocytosis (CIE) inhibitors: not interfered
PANC-1 cells [2]
  cell internalization: successfully internalized
HepG2 cells
  cell internalization: successfully internalized
TfR1
  binding to TfR1: bound to both TfR1 and TfR2
PANC-1 cells [3]
  subcellular co-localization with early endosome, late endosome and lysosome: multiple co-localizations
PANC-1 cells [4]; FITC-conjugated human transferrin receptor antibody
  competition with transferrin receptor antibodies: did not compete
PANC-1 cells [4]; human transferrin-Alexa-488 25 μg/mL
  internalized transferrin after pre-incubation with aptamer: significantly inhibited
PANC-1 cells [5]
  cell surface binding by flow cytometry: enriched cell surface binding
[6]; [7]
  ka (1/Ms), measured association rate: 6780 M⁻¹ s⁻¹
  kd (1/s), measured disassociation rate: 1.68e-06 s⁻¹
[6]; [8]
  association (ka) rate constant: 6780 M⁻¹ s⁻¹
  dissociation (kd) rate constant: 1.68e-06 s⁻¹
[6]; label-free biosensor assay in real-time, read-out: equilibrium dissociation constant (K^D) for hTfR
  Kd: 0.0317 nM
